Values of other authors as cited in publication PMC7809386.
Read-outs that look alike come from different tables or passages of the source.

Tests used:
[1] = molecular target: SecA (Escherichia coli) (UniProt P10408)
[2] = molecular target: SecA (Escherichia coli) (UniProt P10408); remark: listed apart in the source

## SecA (from UniProt P10408)
[1]
  Kd: 0.74 nM
[2]
  Kd: 100 nM
